Test results as given in patent US8722052B2, “Vaccinia virus protein A46 peptide and use thereof” (priority 2008, dated 2014).
Where two headings read alike, the source gives them in different places.

What was measured:
[1] = target: T1, TLR2 (Homo sapiens, UniProt O60603); test: Pam3CysK4-induced TNFα in THP-1 cells, ELISA; assay type: cell-based; details: peptide 1, 5 or 10 μM
T1 construct: endogenous in cells; host or cells: PMA-differentiated THP-1
Description: FIGS. 9A and B are bar charts showing the effect of A464 on Pam3CysK4-induced TNFα in human THP-1 cells. Cells were seeded in 96 well plates (3×10^5 cells/ml) and differentiated with 200 nM PMA for 24 hours before treatment. A464 (SEQ ID NO. 20) was added to the cells at a concentration of 1, 5 or 10 μM 1 hour before stimulating with either 100 ng/ml (A) or 10 ng/ml Pam3CysK4 (B). Supernatants were collected 24 hours after stimulation and assayed for TNFα by ELISA. Cells from (B) were also assayed for viability by the MTT assay (C). No peptides were added to the control wells (black bars). Data is representative of at least three experiments each performed in triplicate and is expressed as mean±s.d;
Cytokine and chemokine production from cells or mouse serum was measured by ELISA using Duoset kits from R&D systems, according to the manufacturer's instructions.
In order to determine whether A464 (SEQ ID No. 20) was specific for TLR4, other TLR pathways were next assayed for sensitivity to A464 (SEQ ID No. 20). A scrambled version of A464 (SEQ ID No. 20) peptide was designed to use as a further control peptide, and this had the sequence: […] (ConA464, SEQ ID No. 32). The A464R (SEQ ID No. 20) and ConA464 (SEQ ID No. 32) peptides were assayed for inhibition of TLR2 signalling in THP-1 cells. […]

[2] = test system: TLR4; assay type: cell-based, human; details: THP-1; for inhibition of LPS-induced TNFα production: 6 h
TLR4, sequence (O00206 24-839): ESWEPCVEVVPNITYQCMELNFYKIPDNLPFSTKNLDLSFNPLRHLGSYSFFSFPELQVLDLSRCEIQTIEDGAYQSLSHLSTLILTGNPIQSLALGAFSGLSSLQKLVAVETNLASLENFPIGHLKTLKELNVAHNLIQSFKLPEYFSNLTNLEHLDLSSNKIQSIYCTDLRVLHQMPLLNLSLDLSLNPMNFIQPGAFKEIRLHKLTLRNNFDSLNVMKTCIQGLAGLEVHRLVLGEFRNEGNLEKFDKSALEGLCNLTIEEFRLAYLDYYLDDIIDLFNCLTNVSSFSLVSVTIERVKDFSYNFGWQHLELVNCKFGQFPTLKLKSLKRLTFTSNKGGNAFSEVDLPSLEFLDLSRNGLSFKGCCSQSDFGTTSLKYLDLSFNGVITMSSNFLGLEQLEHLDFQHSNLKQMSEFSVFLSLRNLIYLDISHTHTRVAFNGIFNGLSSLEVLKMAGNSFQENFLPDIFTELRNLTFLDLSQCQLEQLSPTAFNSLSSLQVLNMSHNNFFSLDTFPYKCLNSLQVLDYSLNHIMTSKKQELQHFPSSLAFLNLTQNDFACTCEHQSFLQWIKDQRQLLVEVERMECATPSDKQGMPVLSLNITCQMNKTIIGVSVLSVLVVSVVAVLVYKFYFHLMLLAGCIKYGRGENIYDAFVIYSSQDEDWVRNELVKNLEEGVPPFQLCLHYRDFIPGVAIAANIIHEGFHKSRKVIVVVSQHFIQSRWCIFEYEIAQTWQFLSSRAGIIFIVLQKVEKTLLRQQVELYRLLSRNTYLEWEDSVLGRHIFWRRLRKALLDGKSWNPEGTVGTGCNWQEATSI
TLR4, sequence (Q9Y6Y9 17-160 partner limits assumed): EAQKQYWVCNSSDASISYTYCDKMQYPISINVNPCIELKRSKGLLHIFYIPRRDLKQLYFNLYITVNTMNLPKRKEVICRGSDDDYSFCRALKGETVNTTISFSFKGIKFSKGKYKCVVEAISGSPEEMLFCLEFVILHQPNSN

[3] = test system: PBMCs; test: MTT cell viability assay, PBMC; assay type: cell-based, human; details: peptide 1, 5 and 25 μM
Description: FIGS. 13A and B are bar charts showing the effect of A467 and A464 on LPS-induced TNFα production and on cell viability in primary human cells. Peripheral blood mononuclear cells (PBMCs) were seeded in 96 well plates (1 ×10^6 cells/ml) 24 hours before treatment. A467 (SEQ ID NO. 23) and A464 (SEQ ID NO. 20) were added to the cells at 1, 5 and 25 μM 1 hour before stimulating with 10 ng/ml LPS. The peptides were added into the unstimulated control wells at 25 μM. Supernatants were collected 6 hours after stimulation and assayed for TNFα production by ELISA (A). The cells were assayed for viability by the MTT assay (B). No peptides were added to the control wells (black bars). Data is representative of at least three experiments each performed in triplicate and is expressed as mean±s.d;
Cell viability was measured by assessing mitochondrial function using an MTT (3-(4,5-Dimethylthiazol-2-yl)-2,5-diphenyltetrazolium bromide) assay. Cells were seeded into 96 well plates and treated with peptides and agonists as described above in relation to the Figs. Wells containing medium only served as a blank control. To terminate treatment of cells, medium was removed and the cells were washed once with PBS. […] MTT was then removed and 200 μl per well of dimethyl sulphoxide (DMSO) was added and cells incubated for 20 min at 37° C. in the dark, prior to absorbance being read at 595 nm on a spectrophotometer.

T1 sequence (O60603 21-784): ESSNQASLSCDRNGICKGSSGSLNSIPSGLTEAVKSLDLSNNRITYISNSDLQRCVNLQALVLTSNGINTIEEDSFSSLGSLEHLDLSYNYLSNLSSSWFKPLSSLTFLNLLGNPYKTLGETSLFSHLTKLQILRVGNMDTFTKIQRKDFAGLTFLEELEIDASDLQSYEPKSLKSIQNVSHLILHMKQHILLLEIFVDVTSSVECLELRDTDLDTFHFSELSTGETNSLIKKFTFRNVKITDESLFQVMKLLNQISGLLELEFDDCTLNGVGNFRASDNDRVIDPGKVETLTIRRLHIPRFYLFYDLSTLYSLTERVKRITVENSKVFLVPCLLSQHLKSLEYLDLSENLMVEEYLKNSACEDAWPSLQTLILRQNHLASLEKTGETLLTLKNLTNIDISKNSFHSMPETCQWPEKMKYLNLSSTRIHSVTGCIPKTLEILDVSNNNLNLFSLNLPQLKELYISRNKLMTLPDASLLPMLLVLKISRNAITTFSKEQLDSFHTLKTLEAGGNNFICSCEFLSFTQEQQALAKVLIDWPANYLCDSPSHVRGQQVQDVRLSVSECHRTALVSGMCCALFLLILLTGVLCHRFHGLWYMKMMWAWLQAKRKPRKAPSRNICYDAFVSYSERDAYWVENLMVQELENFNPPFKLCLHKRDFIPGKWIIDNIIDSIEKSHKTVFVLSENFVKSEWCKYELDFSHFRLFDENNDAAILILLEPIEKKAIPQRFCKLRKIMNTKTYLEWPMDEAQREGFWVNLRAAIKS
T1 sequence (Q15399 25-786 partner): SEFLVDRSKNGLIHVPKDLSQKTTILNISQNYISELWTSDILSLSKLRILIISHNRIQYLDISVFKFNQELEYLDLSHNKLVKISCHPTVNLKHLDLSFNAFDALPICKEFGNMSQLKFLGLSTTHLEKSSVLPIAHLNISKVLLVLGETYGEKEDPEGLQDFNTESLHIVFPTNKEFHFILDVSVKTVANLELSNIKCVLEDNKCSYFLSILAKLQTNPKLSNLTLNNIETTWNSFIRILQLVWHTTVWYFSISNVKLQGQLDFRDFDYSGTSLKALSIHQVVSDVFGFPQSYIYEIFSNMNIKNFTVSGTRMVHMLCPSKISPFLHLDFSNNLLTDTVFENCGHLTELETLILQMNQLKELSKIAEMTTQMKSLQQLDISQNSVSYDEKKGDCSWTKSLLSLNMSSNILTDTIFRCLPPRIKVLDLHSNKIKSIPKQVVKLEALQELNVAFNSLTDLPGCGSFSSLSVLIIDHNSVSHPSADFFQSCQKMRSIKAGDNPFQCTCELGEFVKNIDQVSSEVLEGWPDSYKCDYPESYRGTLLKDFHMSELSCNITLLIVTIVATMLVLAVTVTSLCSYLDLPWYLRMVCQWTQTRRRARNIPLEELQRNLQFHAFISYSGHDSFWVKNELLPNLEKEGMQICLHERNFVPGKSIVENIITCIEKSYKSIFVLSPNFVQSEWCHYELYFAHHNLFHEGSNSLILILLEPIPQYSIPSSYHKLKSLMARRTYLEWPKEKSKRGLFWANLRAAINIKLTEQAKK

KYSFKLILAEYRRRRRRRRR [Peptide A464]
inhibition of Pam3CysK4-induced hTNFα secretion ([1]; 10 ng/ml Pam3CysK4, 24 h): slightly heightened | inhibition of Pam3CysK4-induced hTNFα secretion ([1]; 100 ng/ml Pam3CysK4, 24 h): only very minor inhibitory effects | inhibition of LPS-induced hTNFα production, peptide added after LPS ([2]; 5 and 10 μM peptide added 1 hour after LPS stimulation): almost completely inhibited | inhibition of LPS-induced TNFα production ([2]; peptide 5 or 10 μM 1 h before 10 ng/ml LPS): complete inhibition of TLR4 was achieved at 5 and 10 μM | inhibition of LPS-induced TNFα production ([2]; peptide 20 or 40 μM 1 h before 100 ng/ml LPS): 20 μM A464 (SEQ ID No. 20) inhibited TLR4-mediated TNFα production | toxicity (MTT) [3]: not toxic
